± gives the uncertainty stated by the source.
Test: protein stability index of a GFP-peptide fusion (yeast GPS) (PSI 1-4); higher = more stable; sorted into four equal gates, so the index is relative within each strain
Outline: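 Plasmids isolated from each sorting gate were PCR-amplified and Illumina-sequenced, and barcodes assigned the reads to strains. The gates, four of equal size, were set by GFP/Cherry fluorescence ratio on mid-log cultures in leucine-free medium. These cultures were yeast carrying a pooled library of tiled 17-residue yeast protein peptides fused downstream of GFP on a plasmid that also expresses Cherry. The protein stability index is the sum of every gate's read frequency times its gate number.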

Sequence | protein stability index (doa10∆) | protein stability index (pdr5∆) | protein stability index (san1∆) | protein stability index (ubr1∆)
YDIVKFLTVSKLWAEII [GRR1] | 2.05 ± 0.041 | 2.59 ± 0.038 | 2.18 ± 0.048 | 2.44 ± 0.032
TLNNIFRFDSIQRETLL [GRR1] | 2.88 ± 0.075 | 2.59 ± 0.081 | 2.75 ± 0.052 | 3.1 ± 0.04
RLEEESSWQIYSDENDP [RRP4] | – | 2.93 ± 0.16 | 2.93 ± 0.24 | 3.53 ± 0.16
ELRSLSKKDFKIIDNPK [YMR129W/POM152] | 2.46 ± 0.058 | 2.6 ± 0.06 | 2.24 ± 0.081 | 2.93 ± 0.07
IGIDPPRGVLLYGPPGT [RPT3] | 3.04 ± 0.088 | 2.58 ± 0.1 | 2.89 ± 0.081 | 2.74 ± 0.073
AELEELEEFEFKHGPMS [SMD2] | 3.42 ± 0.078 | 3.41 ± 0.063 | 3.15 ± 0.058 | 3.34 ± 0.071
SHAIRLGNGVACDPSEI [RGR1] | 1.52 ± 0.088 | 1.64 ± 0.089 | 2.91 ± 0.17 | 2.16 ± 0.15
MSPLECRNILGVTSLIK [RPP1] | 2.23 ± 0.052 | 1.96 ± 0.054 | 1.84 ± 0.079 | 2.08 ± 0.044
HHYEECAERVKIQQQQP [QCR6] | 3.25 ± 0.12 | 3.04 ± 0.18 | 2.85 ± 0.11 | 3.13 ± 0.15
VFDLCWNSLMYALQSVK [RRP43] | 2 ± 0.062 | 2.02 ± 0.067 | 2.04 ± 0.074 | 1.99 ± 0.051
MNLDFDIEEGPITSKSW [MCD1] | 2.85 ± 0.15 | 3.16 ± 0.093 | 3.17 ± 0.072 | 3.49 ± 0.18
YKENEAMLRENIEVILS [SNF12] | 2.42 ± 0.053 | 2.73 ± 0.071 | 2.84 ± 0.046 | 2.53 ± 0.057
LLHHVSELDSNDFFIIY [YJL039C/NUP192] | 1.7 ± 0.088 | 1.74 ± 0.088 | 1.61 ± 0.14 | 2.02 ± 0.078
LFEVNPSQTLFSISYKP [SRP21] | 2.57 ± 0.071 | 2.84 ± 0.077 | 2.28 ± 0.091 | 2.64 ± 0.045
TKYSDVLGFLQLFHNLI [YJL039C/NUP192] | 2.75 ± 0.063 | 2.65 ± 0.062 | 2.86 ± 0.048 | 2.94 ± 0.049
LIECLLSKVAALSGNEG [RPB2] | 1.47 ± 0.079 | 1.74 ± 0.098 | 1.89 ± 0.11 | 1.27 ± 0.08
KKVKLAVLSYYKVDAEG [RPS31] | 1.62 ± 0.084 | 2.32 ± 0.082 | 2.52 ± 0.074 | 1.95 ± 0.068
PDTKISSAAILGLGIAF [RPN1] | 2.28 ± 0.043 | 2.3 ± 0.058 | 2.49 ± 0.087 | 2.06 ± 0.051
STGGKAPRKQLASKAAR [HHT1] | 2.35 ± 0.23 | 3.35 ± 0.21 | 3.03 ± 0.1 | 3.25 ± 0.21
LEYWCNPPYSQCIVYPN [SOH1] | 2.03 ± 0.048 | 2.27 ± 0.045 | 2.05 ± 0.054 | 2.13 ± 0.037
IEIDYTVRVDKASTYGE [SNF12] | 1.68 ± 0.08 | 1.41 ± 0.067 | 1.53 ± 0.16 | 1.39 ± 0.04
VEFCRNINSTDKSIDTS [YML103C/NUP188] | 3.08 ± 0.11 | 2.93 ± 0.091 | 3.39 ± 0.097 | 3.12 ± 0.053

Sequence | protein stability index (doa10∆) | protein stability index (pdr5∆) | protein stability index (san1∆) | protein stability index (ubr1∆)
GSGAPVYLTAVLEYLAA [HTA1] | 1.64 ± 0.076 | 1.7 ± 0.077 | 1.55 ± 0.12 | 1.75 ± 0.045
EIAFHLTLIFYDVLHDV [YML103C/NUP188] | 1.26 ± 0.072 | 1.47 ± 0.055 | 1.63 ± 0.17 | 1.99 ± 0.086
RRVKQLDDITDSNTTEI [SIR4] | 3.27 ± 0.086 | 3.14 ± 0.072 | 2.83 ± 0.069 | 3 ± 0.065
DPSISNNIRQAICRYAN [RRP4] | 2.09 ± 0.077 | 2.06 ± 0.049 | 1.59 ± 0.11 | 2.43 ± 0.056
LIELKSDLLVAPPLENE [YML103C/NUP188] | 2.41 ± 0.046 | 2.18 ± 0.052 | 2.31 ± 0.077 | 2.19 ± 0.05
DQDELVQPPLDKFPYKK [SWP82] | 3.11 ± 0.088 | 3.26 ± 0.093 | 3.13 ± 0.059 | 3.08 ± 0.066
HDAIFSIYKYIHLNELL [SNF12] | 2.31 ± 0.051 | 2.43 ± 0.046 | 1.95 ± 0.074 | 2.01 ± 0.038
FQNSYKPALKVSKEGLY [YMR129W/POM152] | 2.42 ± 0.22 | 3.12 ± 0.11 | 3.02 ± 0.082 | 3.07 ± 0.1
ELQKIWQIEEAGNSQIT [SRB5] | 2.77 ± 0.08 | 3.04 ± 0.11 | 3.08 ± 0.048 | 3.05 ± 0.066
SLNLGIGIVEIAHENEQ [SRB8] | 1.43 ± 0.11 | 2.07 ± 0.084 | 2.52 ± 0.11 | 2.08 ± 0.087
YAKSEFDNVASVFMPLI [ECM29] | 3.04 ± 0.054 | 2.8 ± 0.049 | 3.08 ± 0.039 | 3.09 ± 0.046
SLLTLVGSVTYQVDEDV [YJL039C/NUP192] | 1.8 ± 0.1 | 1.67 ± 0.13 | 2.66 ± 0.098 | 1.23 ± 0.14
SDAVMAEHSQNKIDQSL [YJL041W/NSP1] | 3.08 ± 0.064 | 3.18 ± 0.044 | 3.08 ± 0.052 | 3.07 ± 0.056
EFIPPDPTKVTEFEFYL [SSN8] | 3.04 ± 0.055 | 2.85 ± 0.039 | 2.88 ± 0.051 | 2.68 ± 0.031
DDFQNFFDPKPFDQNLD [SWI1] | 2.53 ± 0.061 | 1.95 ± 0.055 | 2.13 ± 0.1 | 2.12 ± 0.052
ANVQRLKEYQSKIIVFP [RPL13A] | 2.93 ± 0.076 | 3.03 ± 0.093 | 3.05 ± 0.092 | 3 ± 0.067
QIVKYARKGLTPSQIGV [RPS13] | 3.12 ± 0.068 | 2.97 ± 0.086 | 2.47 ± 0.082 | 2.83 ± 0.086
TQQSHEQQPEQPQETEE [RPT4] | 2.9 ± 0.056 | 3.16 ± 0.058 | 2.99 ± 0.056 | 2.98 ± 0.047
PGIISITSLQDSSSQCI [YMR129W/POM152] | 2.86 ± 0.076 | 3.04 ± 0.074 | 3 ± 0.066 | 3.14 ± 0.085
RAYLSHSNRCIVFSKKE [CSN12] | 1.41 ± 0.075 | 1.56 ± 0.062 | 1.13 ± 0.15 | 1.15 ± 0.036
KEEFSSDESIERLMTWK [RRI2] | 2.49 ± 0.08 | 2.77 ± 0.076 | 2.55 ± 0.11 | 2.43 ± 0.17
